These results are taken from patent US20200407442A1 (WUXI BIOLOGICS IRELAND, published 2020).

Holding throughout (test): ELISA, antibody coated, LAG-3 D12.mFc mutant in supernatant, normalised to control mutants
For orientation: In an ELISA, binding on a coated surface is turned into a signal by an enzyme label.

Assay [1] has as its target T1, human LAG-3-ECD.D12.mFc mutant V61A (human, UniProt P18627 37-252).
T1 construct: Alanine scanning mutant; construct limits as for m26
T1 chain: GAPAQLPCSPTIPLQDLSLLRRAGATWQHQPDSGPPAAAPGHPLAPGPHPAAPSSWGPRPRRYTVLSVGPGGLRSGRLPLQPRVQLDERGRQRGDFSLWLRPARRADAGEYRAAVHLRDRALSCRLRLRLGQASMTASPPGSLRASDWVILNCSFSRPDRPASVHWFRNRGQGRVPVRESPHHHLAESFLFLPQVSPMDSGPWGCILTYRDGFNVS
On the procedure:
(§1) For ELISA binding assay, the antibody 1.53.3-uAb-IgG4k or 3.40.19-uAb-hIgG4L (2 μg/mL) was coated in plates. After interacting with the supernatant that contains quantified LAG-3 mutants or human LAG-3-ECD.D12.mFc protein, HRP conjugated anti-mFc antibody (1:5000; Bethyl, USA) was added as a detection antibody. Absorbance was normalized according to the average absorbance of control mutants. After setting an additional cutoff to the binding fold change (<0.75), the final determined epitope residues were identified.

The target of assay [2] is T2, human LAG-3-ECD.D12.mFc mutant E146A (human, UniProt P18627 37-252).
T2 construct: Alanine scanning mutant; construct limits as for m26
T2 chain: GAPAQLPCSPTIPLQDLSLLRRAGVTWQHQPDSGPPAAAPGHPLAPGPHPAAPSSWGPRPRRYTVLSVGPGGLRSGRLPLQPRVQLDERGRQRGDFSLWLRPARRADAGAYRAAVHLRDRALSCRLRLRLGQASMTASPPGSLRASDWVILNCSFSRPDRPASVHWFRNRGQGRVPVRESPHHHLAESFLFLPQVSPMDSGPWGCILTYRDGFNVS
Here is the method: as §1

The target in assay [3] is T3, human LAG-3-ECD.D12.mFc mutant G37A (human, UniProt P18627 38-252).
T3 construct: Alanine scanning mutant; construct limits as for m26
T3 sequence: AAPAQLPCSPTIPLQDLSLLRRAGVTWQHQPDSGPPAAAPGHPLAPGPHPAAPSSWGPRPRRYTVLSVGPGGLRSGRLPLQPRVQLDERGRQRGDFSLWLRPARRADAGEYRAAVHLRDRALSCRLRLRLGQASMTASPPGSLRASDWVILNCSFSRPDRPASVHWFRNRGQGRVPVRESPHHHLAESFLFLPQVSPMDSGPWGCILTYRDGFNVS
Here is the method:
as §1

Assay [4] deals with T4, human LAG-3-ECD.D12.mFc mutant A139G (human, UniProt P18627 37-252).
T4 construct: construct limits as for m26
T4 chain: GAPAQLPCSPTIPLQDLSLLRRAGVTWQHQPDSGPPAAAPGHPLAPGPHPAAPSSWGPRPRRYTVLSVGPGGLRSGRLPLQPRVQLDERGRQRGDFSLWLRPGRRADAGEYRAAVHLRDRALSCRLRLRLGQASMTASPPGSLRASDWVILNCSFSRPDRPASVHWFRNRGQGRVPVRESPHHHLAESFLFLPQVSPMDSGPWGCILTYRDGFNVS
Here is the method:
as §1

Assay [5] deals with T5, human LAG-3-ECD.D12.mFc mutant H65A (human, UniProt P18627 37-252).
T5 construct: Alanine scanning mutant; construct limits as for m26
T5 chain: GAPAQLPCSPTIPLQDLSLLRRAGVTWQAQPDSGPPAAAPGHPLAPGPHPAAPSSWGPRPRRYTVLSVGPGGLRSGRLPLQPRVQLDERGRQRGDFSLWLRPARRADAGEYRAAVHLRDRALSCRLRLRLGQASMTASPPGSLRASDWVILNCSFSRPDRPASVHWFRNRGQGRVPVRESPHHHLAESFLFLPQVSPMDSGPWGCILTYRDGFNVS
Here is the method:
as §1

Assay [6] addresses T6, human LAG-3-ECD.D12.mFc mutant V101A (human, UniProt P18627 37-252).
T6 construct: Alanine scanning mutant; construct limits as for m26
T6 chain: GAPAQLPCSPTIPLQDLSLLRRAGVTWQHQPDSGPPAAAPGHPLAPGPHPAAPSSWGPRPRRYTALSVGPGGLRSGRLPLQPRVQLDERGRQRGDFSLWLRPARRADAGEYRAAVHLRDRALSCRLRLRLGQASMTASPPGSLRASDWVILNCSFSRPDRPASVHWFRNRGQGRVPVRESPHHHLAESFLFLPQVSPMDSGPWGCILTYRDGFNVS
On the procedure: as §1

Assay [7] concerns the target T7, human LAG-3-ECD.D12.mFc mutant G145A (human, UniProt P18627 37-252).
T7 construct: Alanine scanning mutant; construct limits as for m26
T7 chain: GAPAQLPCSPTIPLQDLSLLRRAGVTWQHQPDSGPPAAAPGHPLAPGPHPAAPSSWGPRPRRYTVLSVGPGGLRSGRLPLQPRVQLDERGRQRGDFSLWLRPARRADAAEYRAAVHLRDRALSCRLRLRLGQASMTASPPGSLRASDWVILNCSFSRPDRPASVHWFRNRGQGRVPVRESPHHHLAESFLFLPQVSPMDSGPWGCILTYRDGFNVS
On the procedure:
as §1

Assay [8] deals with T8, human LAG-3-ECD.D12.mFc mutant L42A (human, UniProt P18627 37-252).
T8 construct: Alanine scanning mutant; construct limits as for m26
T8 chain: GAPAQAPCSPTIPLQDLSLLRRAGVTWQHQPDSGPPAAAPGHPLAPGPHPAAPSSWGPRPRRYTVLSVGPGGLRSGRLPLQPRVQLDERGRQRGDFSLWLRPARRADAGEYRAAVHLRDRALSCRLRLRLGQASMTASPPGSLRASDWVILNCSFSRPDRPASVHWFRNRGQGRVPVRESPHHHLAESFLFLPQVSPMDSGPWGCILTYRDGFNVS
Here is the method:
as §1

B1: 1.53.3-uAb-IgG4k (antibody, V domains shown)
VH: QVQLQQWGAGLLKPSETLSLTCGVYGGSFSGYYWSWIRQPPGMGLEWIGEINHRGNTNYNPSLKSRVTISEDTSKNQFSLRLSSVTAADTAVYFCTRGEDYSDYDYYGDFWGQGTLVTVSS
VL: EIVLTQSPATLSLSQGERATLSCRASQSISSYLAWYQQKPGQAPRLLIYAASNRATGIPARFSGSGSGTDFTLTISSLEPEDFAIYYCQQRSNWPLTFGGGTKVEIK
notes: Fully human antibody from OMT rats; IgG4 kappa by its name
Regarding B1, the “Fold Change” value in assay [1] was 0.637; in assay [2] it was 0.701; in assay [3] it was 0.558; in assay [4] it was 0.708; in assay [5], 0.627; in assay [6], 0.504. The “Fold Change” value in assay [7] was found to be 0.692; in assay [8] it was 0.624.

B2: 3.40.19-uAb-IgG4L (antibody, V domains shown)
VH: QLQLQESGPGLVKPSETLSLTCTVSGDSISSTSYYWGWIRQPPGKGLEWIGSFYYSGSTYYNPSLKSRVTISVDTSKNQFSLKLNSVTAADTAVYYCARMQLWSYDVDVWGQGTTVTVSS
VL: QSALTQPASVSGSPGQSITISCTGTSSDVGGYDYVAWYQQHPGKVPKLMIYDVSERPSGVSNRFSGSKSGNTASLTISGLQAEDEADYYCSSYTSTTTLVVFGGGTKLSVL
notes: Fully human antibody from OMT rats; IgG4 lambda by its name; also called 3.40.19-uAb-hIgG4L
Take B2: the “Fold Change” value in assay [1] is 0.514; in assay [2], 0.582; in assay [3], 0.284; in assay [4], 0.368; in assay [5] it was 0.489; in assay [6], 0.275. Further, the “Fold Change” value was 0.466 in assay [7] and 0.306 in assay [8].
